Assay results taken from the supplement of paper PMC9112550, “Optimization of the antimicrobial peptide Bac7 by deep mutational scanning” (BMC Biology, 2022).

Tested on: Escherichia coli TOP10
Assay: shrunken log2 fold change of peptide-encoding DNA abundance (4.5 h post-induction vs induction); higher = less antimicrobial activity (less host growth inhibition)
Settings: time post-induction: 4.5 h; library: site-saturation at positions 5, 18, 19, 20
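Also: peptides expressed intracellularly from a pBAD plasmid library in pooled LB shake-flask culture, induced with 0.3% L-arabinose, DNA abundance read by NGS, three biological replicates, DESeq2 with apeglm shrinkage.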

Sequence	shrunken log2 fold change
RRIRERPPRLPRPRPRPNIQPRP	-0.357
RRIRERPPRLPRPRPRPNKGPRP	-0.164
RRIRERPPRLPRPRPRPNMHPRP	-0.619
RRIRERPPRLPRPRPRPNMNPRP	-0.808
RRIRERPPRLPRPRPRPNMRPRP	0.131
RRIRERPPRLPRPRPRPNNRPRP	-0.315
RRIRERPPRLPRPRPRPNNWPRP	-0.524
RRIRERPPRLPRPRPRPNPVPRP	-0.424
RRIRERPPRLPRPRPRPNQEPRP	0.0174
RRIRERPPRLPRPRPRPNREPRP	-0.0209
RRIRERPPRLPRPRPRPNRGPRP	-0.00351
RRIRERPPRLPRPRPRPNRQPRP	0.0895
RRIRERPPRLPRPRPRPNSAPRP	-0.503
RRIRERPPRLPRPRPRPNSRPRP	-0.481
RRIRERPPRLPRPRPRPNSTPRP	-0.495
RRIRERPPRLPRPRPRPNSVPRP	0.0407
RRIRERPPRLPRPRPRPNSWPRP	-0.0404
RRIRERPPRLPRPRPRPNTQPRP	-0.187
RRIRERPPRLPRPRPRPNVSPRP	-0.00968
RRIRERPPRLPRPRPRPNWAPRP	0.0312
RRIRERPPRLPRPRPRPNWMPRP	-0.24
RRIRERPPRLPRPRPRPNYLPRP	-0.0974
RRIRERPPRLPRPRPRPNYRPRP	-0.000813
RRIRERPPRLPRPRPRPNYWPRP	-0.344
RRIRERPPRLPRPRPRPPAWPRP	0.0898

Sequence	shrunken log2 fold change
RRIRERPPRLPRPRPRPPCKPRP	-0.208
RRIRERPPRLPRPRPRPPCPPRP	1.27
RRIRERPPRLPRPRPRPPETPRP	-0.0785
RRIRERPPRLPRPRPRPPFMPRP	-0.185
RRIRERPPRLPRPRPRPPHQPRP	-0.0506
RRIRERPPRLPRPRPRPPHRPRP	0.0387
RRIRERPPRLPRPRPRPPIKPRP	-0.414
RRIRERPPRLPRPRPRPPLFPRP	0.124
RRIRERPPRLPRPRPRPPLSPRP	-0.212
RRIRERPPRLPRPRPRPPMEPRP	-0.0809
RRIRERPPRLPRPRPRPPMHPRP	-0.171
RRIRERPPRLPRPRPRPPNMPRP	-0.251
RRIRERPPRLPRPRPRPPPGPRP	0.418
RRIRERPPRLPRPRPRPPQFPRP	-0.151
RRIRERPPRLPRPRPRPPRIPRP	-0.453
RRIRERPPRLPRPRPRPPSDPRP	0.0848
RRIRERPPRLPRPRPRPPVCPRP	-0.119
RRIRERPPRLPRPRPRPPVGPRP	0.0345
RRIRERPPRLPRPRPRPPWAPRP	0.176
RRIRERPPRLPRPRPRPQADPRP	-0.171
RRIRERPPRLPRPRPRPQDLPRP	-0.351
RRIRERPPRLPRPRPRPQDRPRP	-0.167
RRIRERPPRLPRPRPRPQEHPRP	-0.179
RRIRERPPRLPRPRPRPQFQPRP	-0.0426
RRIRERPPRLPRPRPRPQFSPRP	-0.0998

Sequence	shrunken log2 fold change
RRIRERPPRLPRPRPRPQGKPRP	-0.345
RRIRERPPRLPRPRPRPQHNPRP	-0.771
RRIRERPPRLPRPRPRPQINPRP	-0.586
RRIRERPPRLPRPRPRPQIRPRP	0.0242
RRIRERPPRLPRPRPRPQKRPRP	0.462
RRIRERPPRLPRPRPRPQKVPRP	-0.102
RRIRERPPRLPRPRPRPQNCPRP	-0.0646
RRIRERPPRLPRPRPRPQNDPRP	-0.551
RRIRERPPRLPRPRPRPQPSPRP	0.0462
RRIRERPPRLPRPRPRPQSPPRP	-0.062
RRIRERPPRLPRPRPRPQSYPRP	-0.0192
RRIRERPPRLPRPRPRPQVEPRP	0.0218
RRIRERPPRLPRPRPRPQWRPRP	-0.0529
RRIRERPPRLPRPRPRPQWVPRP	0.0428
RRIRERPPRLPRPRPRPQYFPRP	-0.891
RRIRERPPRLPRPRPRPQYVPRP	-0.215
RRIRERPPRLPRPRPRPRACPRP	0.177
RRIRERPPRLPRPRPRPRAGPRP	0.459
RRIRERPPRLPRPRPRPRAKPRP	0.192
RRIRERPPRLPRPRPRPRALPRP	0.0317
RRIRERPPRLPRPRPRPRAQPRP	0.22
RRIRERPPRLPRPRPRPRCAPRP	0.228
RRIRERPPRLPRPRPRPRCIPRP	-0.425
RRIRERPPRLPRPRPRPRCLPRP	0.0247
RRIRERPPRLPRPRPRPRCTPRP	-0.0287

Sequence	shrunken log2 fold change
RRIRERPPRLPRPRPRPRDCPRP	0.112
RRIRERPPRLPRPRPRPRDDPRP	0.0953
RRIRERPPRLPRPRPRPRDFPRP	-0.134
RRIRERPPRLPRPRPRPRDLPRP	0.023
RRIRERPPRLPRPRPRPRESPRP	-0.329
RRIRERPPRLPRPRPRPREYPRP	-0.242
RRIRERPPRLPRPRPRPRFFPRP	-0.00349
RRIRERPPRLPRPRPRPRGEPRP	-0.023
RRIRERPPRLPRPRPRPRIQPRP	-0.362
RRIRERPPRLPRPRPRPRKQPRP	0.00709
RRIRERPPRLPRPRPRPRMPPRP	-0.0437
RRIRERPPRLPRPRPRPRMTPRP	0.0697
RRIRERPPRLPRPRPRPRNIPRP	-0.095
RRIRERPPRLPRPRPRPRNMPRP	-0.228
RRIRERPPRLPRPRPRPRNQPRP	-0.312
RRIRERPPRLPRPRPRPRPIPRP	0.345
RRIRERPPRLPRPRPRPRPMPRP	-0.0942
RRIRERPPRLPRPRPRPRQQPRP	0.357
RRIRERPPRLPRPRPRPRRKPRP	0.11
RRIRERPPRLPRPRPRPRRSPRP	-0.021
RRIRERPPRLPRPRPRPRSDPRP	-0.323
RRIRERPPRLPRPRPRPRSGPRP	-0.049
RRIRERPPRLPRPRPRPRVAPRP	0.343
RRIRERPPRLPRPRPRPRWAPRP	0.425
RRIRERPPRLPRPRPRPRWFPRP	0.0416

Sequence	shrunken log2 fold change
RRIRERPPRLPRPRPRPRYNPRP	-0.672
RRIRERPPRLPRPRPRPSAAPRP	0.133
RRIRERPPRLPRPRPRPSAGPRP	-0.118
RRIRERPPRLPRPRPRPSCAPRP	-0.173
RRIRERPPRLPRPRPRPSDEPRP	-0.228
RRIRERPPRLPRPRPRPSDMPRP	-0.0552
RRIRERPPRLPRPRPRPSEWPRP	-0.0737
RRIRERPPRLPRPRPRPSFIPRP	-0.906
RRIRERPPRLPRPRPRPSGFPRP	0.0785
RRIRERPPRLPRPRPRPSGNPRP	-0.636
RRIRERPPRLPRPRPRPSHDPRP	-0.118
RRIRERPPRLPRPRPRPSHHPRP	-0.73
RRIRERPPRLPRPRPRPSIVPRP	-0.443
RRIRERPPRLPRPRPRPSKPPRP	0.0303
RRIRERPPRLPRPRPRPSMFPRP	-0.723
RRIRERPPRLPRPRPRPSMPPRP	-0.484
RRIRERPPRLPRPRPRPSMWPRP	-0.0377
RRIRERPPRLPRPRPRPSNPPRP	-0.681
RRIRERPPRLPRPRPRPSQAPRP	0.151
RRIRERPPRLPRPRPRPSRDPRP	-0.12
RRIRERPPRLPRPRPRPSREPRP	0.125
RRIRERPPRLPRPRPRPSRNPRP	-0.207
RRIRERPPRLPRPRPRPSSTPRP	-0.32
RRIRERPPRLPRPRPRPSTYPRP	-0.263
RRIRERPPRLPRPRPRPSVKPRP	-0.625

Sequence	shrunken log2 fold change
RRIRERPPRLPRPRPRPSVQPRP	-0.204
RRIRERPPRLPRPRPRPSWFPRP	-0.589
RRIRERPPRLPRPRPRPSWRPRP	-0.0751
RRIRERPPRLPRPRPRPSWSPRP	-0.0285
RRIRERPPRLPRPRPRPSYKPRP	-1.27
RRIRERPPRLPRPRPRPSYSPRP	-0.147
RRIRERPPRLPRPRPRPSYVPRP	-0.264
RRIRERPPRLPRPRPRPTAAPRP	0.456
RRIRERPPRLPRPRPRPTAQPRP	0.416
RRIRERPPRLPRPRPRPTCRPRP	-0.146
RRIRERPPRLPRPRPRPTCVPRP	-0.0193
RRIRERPPRLPRPRPRPTELPRP	-0.577
RRIRERPPRLPRPRPRPTEPPRP	0.0207
RRIRERPPRLPRPRPRPTFDPRP	-0.066
RRIRERPPRLPRPRPRPTFEPRP	0.144
RRIRERPPRLPRPRPRPTFPPRP	-0.44
RRIRERPPRLPRPRPRPTHCPRP	-0.115
RRIRERPPRLPRPRPRPTIMPRP	-0.959
RRIRERPPRLPRPRPRPTIVPRP	0.03
RRIRERPPRLPRPRPRPTLPPRP	0.123
RRIRERPPRLPRPRPRPTQSPRP	0.329
RRIRERPPRLPRPRPRPTSLPRP	-0.647
RRIRERPPRLPRPRPRPTTFPRP	-0.367
RRIRERPPRLPRPRPRPTVWPRP	0.217
RRIRERPPRLPRPRPRPTWQPRP	0.0759
